B1: Mitochondrial Rho GTPase 1 (Homo sapiens), Q8IXI2 (parent)
chain: MKKDVRILLVGEPRVGKTSLIMSLVSEEFPEEVPPRAEEITIPADVTPERVPTHIVDYSEAEQSDEQLHQEISQANVICIVYAVNNKHSIDKVTSRWIPLINERTDKDSRLPLILVGNKSDLVEYSSMETILPIMNQYTEIETCVECSAKNLKNISELFYYAQKAVLHPTGPLYCPEEKEMKPACIKALTRIFKISDQDNDGTLNDAELNFFQRICFNTPLAPQALEDVKNVVRKHISDGVADSGLTLKGFLFLHTLFIQRGRHETTWTVLRRFGYDDDLDLTPEYLFPLLKIPPDCTTELNHHAYLFLQSTFDKHDLDRDCALSPDELKDLFKVFPYIPWGPDVNNTVCTNERGWITYQGFLSQWTLTTYLDVQRCLEYLGYLGYSILTEQESQASAVTVTRDKKIDLQKKQTQRNVFRCNVIGVKNCGKSGVLQALLGRNLMRQKKIREDHKSYYAINTVYVYGQEKYLLLHDISESEFLTEAEIICDVVCLVYDVSNPKSFEYCARIFKQHFMDSRIPCLIVAAKSDLHEVKQEYSISPTDFCRKHKMPPPQAFTCNTADAPSKDIFVKLTTMAMYPHVTQADLKSSTFWLRASFGATVFAVLGFAMYKALLKQR
partner: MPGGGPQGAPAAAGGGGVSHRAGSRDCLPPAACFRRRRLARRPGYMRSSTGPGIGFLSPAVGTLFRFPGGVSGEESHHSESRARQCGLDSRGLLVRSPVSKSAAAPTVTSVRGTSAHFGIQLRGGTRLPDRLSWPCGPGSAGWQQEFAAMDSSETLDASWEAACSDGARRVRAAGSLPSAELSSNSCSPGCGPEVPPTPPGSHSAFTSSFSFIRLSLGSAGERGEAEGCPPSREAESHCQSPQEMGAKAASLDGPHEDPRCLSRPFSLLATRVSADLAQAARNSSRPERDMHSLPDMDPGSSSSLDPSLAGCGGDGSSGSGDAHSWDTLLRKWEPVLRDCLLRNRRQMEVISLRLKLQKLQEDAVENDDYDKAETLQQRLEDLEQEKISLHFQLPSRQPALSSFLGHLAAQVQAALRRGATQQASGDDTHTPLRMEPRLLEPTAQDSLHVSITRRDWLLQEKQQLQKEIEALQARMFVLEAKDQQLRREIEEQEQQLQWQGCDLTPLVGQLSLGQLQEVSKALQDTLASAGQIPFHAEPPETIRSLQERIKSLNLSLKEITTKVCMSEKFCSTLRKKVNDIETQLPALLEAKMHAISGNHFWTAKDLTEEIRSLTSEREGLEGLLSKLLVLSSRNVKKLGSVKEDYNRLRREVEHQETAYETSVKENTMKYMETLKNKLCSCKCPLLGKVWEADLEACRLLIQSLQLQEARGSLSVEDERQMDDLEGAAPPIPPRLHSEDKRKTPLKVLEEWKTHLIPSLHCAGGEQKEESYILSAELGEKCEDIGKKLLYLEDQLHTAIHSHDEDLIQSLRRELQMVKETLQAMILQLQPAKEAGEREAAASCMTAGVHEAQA

Variants of: B1
Conditions: with disc1_human DISC1, Q9NRI5

Variant | effect of a mutation on the interaction
P13V | increasing interaction
T18N | with no effect

Reference: IntAct's records for PubMed 32637409
